13 molecules from patent US20240368282A1 (BIOSCEPTRE AUST, published 2024) can be followed below.

In one assay the target is T1, CD33 (UniProt P20138 18-364, limits assumed).
T1 construct: whole, on cells; Endogenous on human cell lines; also called Siglec-3
Put plainly: flow cytometry, anti-HIS antibody. (In general: Flow cytometry measures light scatter and fluorescence of single cells or particles in a stream.)

In another assay the target is T2, CD123 (UniProt P26951 19-378, limits assumed).
T2 construct: whole, on cells; also called IL3RA
Put plainly: flow cytometry, anti-HIS antibody.

Assay [1] has as its target T3, CD22 (UniProt P20273 20-847, limits assumed).
T3 construct: whole, on cells
Kind of assay: flow cytometry (data not shown).

The target in another assay is T4, CD16 (human, UniProt P08637 17-254).
T4 construct: whole, on cells; CD16 is the antigen of the 3G8 arm of these molecules; also called FcγRIII
Put plainly: binding to NK cells (method not told).

In another assay the target is T5, CD37 (UniProt P11049 1-281, limits assumed).
T5 construct: whole, on cells
T5 sequence (looked up): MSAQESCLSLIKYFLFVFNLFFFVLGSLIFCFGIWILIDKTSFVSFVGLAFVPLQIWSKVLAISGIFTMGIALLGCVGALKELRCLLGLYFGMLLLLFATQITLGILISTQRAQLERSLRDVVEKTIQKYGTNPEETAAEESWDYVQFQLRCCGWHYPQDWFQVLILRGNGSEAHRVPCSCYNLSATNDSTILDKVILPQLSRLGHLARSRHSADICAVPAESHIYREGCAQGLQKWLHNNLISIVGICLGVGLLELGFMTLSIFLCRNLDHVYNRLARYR
Put plainly: flow cytometry, anti-HIS antibody.

A further assay addresses T6, CD135 (UniProt P36888 27-993, limits assumed).
T6 construct: whole, on cells; also called FLT-3
Put plainly: flow cytometry, anti-HIS antibody.

In another assay the target is T7, EGFR (UniProt P00533 25-1210).
T7 construct: whole, on cells
Kind of assay: flow cytometry, anti-HIS antibody.

Assay [2] deals with T3, CD22. Put plainly: flow cytometry, anti-HIS antibody.
The target in another assay is T8, BCMA (UniProt Q02223 1-184, limits assumed).
T8 construct: whole, on cells
T8 sequence (looked up): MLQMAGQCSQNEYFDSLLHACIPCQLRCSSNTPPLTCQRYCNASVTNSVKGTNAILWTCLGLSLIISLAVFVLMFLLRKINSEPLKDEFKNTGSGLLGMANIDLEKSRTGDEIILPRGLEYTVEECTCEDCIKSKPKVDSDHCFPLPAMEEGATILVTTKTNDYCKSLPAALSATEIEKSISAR
Kind of assay: flow cytometry, anti-HIS antibody.

Another assay concerns the target T9, ROR1 (UniProt Q01973 30-937, limits assumed).
T9 construct: whole, on cells
Kind of assay: flow cytometry, anti-HIS antibody.

The next assay has as its target T10, CD70 (UniProt P32970 1-193, limits assumed).
T10 construct: whole, on cells
T10 sequence (looked up): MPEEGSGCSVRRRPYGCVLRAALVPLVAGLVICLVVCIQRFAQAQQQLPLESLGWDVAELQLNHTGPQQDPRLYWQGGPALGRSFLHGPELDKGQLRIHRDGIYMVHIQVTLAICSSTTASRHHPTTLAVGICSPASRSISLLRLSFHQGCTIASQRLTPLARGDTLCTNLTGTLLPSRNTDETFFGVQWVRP
Kind of assay: flow cytometry, anti-HIS antibody.

Another assay addresses T11, CD79B (UniProt P40259 29-229, limits assumed).
T11 construct: whole, on cells
T11 sequence (looked up): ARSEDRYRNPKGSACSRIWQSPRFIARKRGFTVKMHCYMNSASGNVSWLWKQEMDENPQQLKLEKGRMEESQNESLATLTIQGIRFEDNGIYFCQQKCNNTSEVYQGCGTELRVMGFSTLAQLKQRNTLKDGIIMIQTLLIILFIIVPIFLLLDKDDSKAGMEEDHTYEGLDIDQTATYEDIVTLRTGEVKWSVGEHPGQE
Kind of assay: flow cytometry, anti-HIS antibody.

T4 sequence (P08637 17-254): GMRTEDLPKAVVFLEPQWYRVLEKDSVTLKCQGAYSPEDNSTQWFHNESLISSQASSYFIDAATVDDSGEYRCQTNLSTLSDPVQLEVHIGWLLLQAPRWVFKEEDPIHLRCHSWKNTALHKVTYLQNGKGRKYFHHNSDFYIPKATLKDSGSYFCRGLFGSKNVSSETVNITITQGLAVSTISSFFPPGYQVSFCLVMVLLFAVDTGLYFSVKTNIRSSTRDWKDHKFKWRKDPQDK
T1 sequence (P20138 18-364 limits assumed): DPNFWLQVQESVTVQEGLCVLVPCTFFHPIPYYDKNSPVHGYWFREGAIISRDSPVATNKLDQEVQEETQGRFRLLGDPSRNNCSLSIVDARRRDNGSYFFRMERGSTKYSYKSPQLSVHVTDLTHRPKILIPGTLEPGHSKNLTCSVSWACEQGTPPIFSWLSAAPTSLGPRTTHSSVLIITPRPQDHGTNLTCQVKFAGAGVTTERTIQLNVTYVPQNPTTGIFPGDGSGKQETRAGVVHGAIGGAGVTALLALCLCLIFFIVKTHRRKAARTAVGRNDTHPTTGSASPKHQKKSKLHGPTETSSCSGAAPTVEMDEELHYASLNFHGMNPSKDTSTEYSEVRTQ
T2 sequence (P26951 19-378 limits assumed): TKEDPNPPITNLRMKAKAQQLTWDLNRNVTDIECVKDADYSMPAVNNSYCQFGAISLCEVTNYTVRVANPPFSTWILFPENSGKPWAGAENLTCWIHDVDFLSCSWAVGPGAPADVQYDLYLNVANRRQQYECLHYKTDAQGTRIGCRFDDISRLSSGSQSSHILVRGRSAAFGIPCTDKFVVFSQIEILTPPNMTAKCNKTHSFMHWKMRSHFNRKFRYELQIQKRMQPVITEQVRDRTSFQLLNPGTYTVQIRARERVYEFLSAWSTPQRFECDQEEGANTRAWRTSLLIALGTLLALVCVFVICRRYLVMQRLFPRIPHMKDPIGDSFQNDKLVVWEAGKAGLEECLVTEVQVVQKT

B1: CD33 BRiDGE (B031) (Fab, V domains shown)
VH: QVQLVQSGAEVKKPGSSVKVSCKASGYTFTDYNMHWVRQAPGQGLEWIGYIYPYNGGTGYNQKFKSKATITADESTNTAYMELSSLRSEDTAVYYCARGRPAMDYWGQGTLVTVSS
VL: DIQMTQSPSSLSASVGDRVTITCRASESVDNYGISFMNWFQQKPGKAPKLLIYAASNQGSGVPSRFSGSGSGTDFTLTISSLQPDDFATYYCQQSKEVPWTFGQGTKVEIKR
notes: 6xHis on both chains; also called CD33 bridging molecule; CD33 Fab
In the case of B1, in the assay with CD33, the binding result was “binds”.

B2: CD123 bridging molecule derived from clone 32716 (Fab, V domains shown)
VH: QIQLVQSGPELKKPGETVKISCKASGYIFTNYGMNWVKQAPGKSFKWMGWINTYTGESTYSADFKGRFAFSLETSASTAYLHINDLKNEDTATYFCARSGGYDPMDYWGQGTSVTVSS
VL: DIVLTQSPASLAVSLGQRATISCRASESVDNYGNTFMHWYQQKPGQPPKLLIYRASNLESGIPARFSGSGSRTDFTLTINPVEADDVATYYCQQSNEDPPTFGAGTKLELKR
notes: Fab with E200 at the N-terminus of the light chain, 6xHis on both chains; also called B042; CD123, clone 32716, B042-1_LC / B042-2_HC
Take B2: the binding result with CD123 is reported as “binds”.

B3: CD22 bridging molecule derived from inotuzumab (Fab, V domains shown)
VH: EVQLVQSGAEVKKPGASVKVSCKASGYRFTNYWIHWVRQAPGQGLEWIGGINPGNNYATYRRKFQGRVTMTADTSTSTVYMELSSLRSEDTAVYYCTREGYGNYGAWFAYWGQGTLVTVSS
VL: DVQVTQSPSSLSASVGDRVTITCRSSQSLANSYGNTFLSWYLHKPGKAPQLLIYGISNRFSGVPDRFSGSGSGTDFTLTISSLQPEDFATYYCLQGTHQPYTFGQGTKVEIKR
notes: also called B024; CD22, Inotuzumab, B024-1_LC / B024-2_HC
For the molecule B3, in the assay with CD22 [1], the binding result is listed as “binds”.

B4: OR_BiKE2 OR106 (CD16 x nfP2X7) (bispecific antibody)
chain: DIVLTQSPASLAVSLGQRATISCKASQSVDFDGDSFMNWYQQKPGQPPKLLIYTTSNLESGIPARFSASGSGTDFTLNIHPVEEEDTATYYCQQSNEDPYTFGGGTKLEIKGGGGSGGGGSGGGGSQVTLKESGPGILQPSQTLSLTCSFSGFSLRTSGMGVGWIRQPSGKGLEWLAHIWWDDDKRYNPALKSRLTISKDTSSNQVFLKIASVDTADTATYYCAQINPAWFAYWGQGTLVTVSSVEGGSGGSGGSGGSGGVDEVQLLESGGGLVQPGGSLRLSCAASGFTFRNHDMGWVRQAPGKGLEWVSAISGSGGSTYYANSVKGRFTISRDNSKNTLYLQMNSLRAEDTAVYYCAEPKPMDTEFDYRSPGTLVTVSSGGGGSGGGGSGGGGSDIQMTQSPSSLSASVGDRVTITCRASQYIYDYLNWYQQKPGKAPKLLIYAASYLQSGVPSRFSGSGSGTDFTLTISSLQPEDFATYYCQQYHHPSTFGQGTKVEIKRHHHHHH
notes: 3G8 scFv-linker-BIL03/WTB1 scFv-6xHis
On to B4, for which the binding result in the assay with CD16 was “binds”.

B5: CD37 bridging molecule derived from otlertuzumab (Fab, V domains shown)
VH: EVQLVQSGAEVKKPGESLKISCKGSGYSFTGYNMNWVRQMPGKGLEWMGNIDPYYGGTTYNRKFKGQVTISADKSISTAYLQWSSLKASDTAMYYCARSVGPFDSWGQGTLVTVSS
VL: EIVLTQSPATLSLSPGERATLSCRASENVYSYLAWYQQKPGQAPRLLIYFAKTLAEGIPARFSGSGSGTDFTLTISSLEPEDFAVYYCQHHSDNPWTFGQGTKVEIKR
notes: Fab with E200 at the N-terminus of the light chain, 6xHis on both chains; also called B026; CD37, Otlertuzumab, B026-1_LC / B026-2_HC
Turning to B5, the binding result with CD37 is recorded as “binds”.

B6: OR_BiKE1 OR105 (nfP2X7 x CD16) (bispecific antibody)
chain: DIQMTQSPSSLSASVGDRVTITCRASQYIYDYLNWYQQKPGKAPKLLIYAASYLQSGVPSRFSGSGSGTDFTLTISSLQPEDFATYYCQQYHHPSTFGQGTKVEIKRGGGGSGGGGSGGGGSEVQLLESGGGLVQPGGSLRLSCAASGFTFRNHDMGWVRQAPGKGLEWVSAISGSGGSTYYANSVKGRFTISRDNSKNTLYLQMNSLRAEDTAVYYCAEPKPMDTEFDYRSPGTLVTVSSVEGGSGGSGGSGGSGGVDQVTLKESGPGILQPSQTLSLTCSFSGFSLRTSGMGVGWIRQPSGKGLEWLAHIWWDDDKRYNPALKSRLTISKDTSSNQVFLKIASVDTADTATYYCAQINPAWFAYWGQGTLVTVSSGGGGSGGGGSGGGGSDIVLTQSPASLAVSLGQRATISCKASQSVDFDGDSFMNWYQQKPGQPPKLLIYTTSNLESGIPARFSASGSGTDFTLNIHPVEEEDTATYYCQQSNEDPYTFGGGTKLEIKHHHHHH
As to B6, the binding result with CD16 is recorded as “binds”.

B7: CD135 bridging molecule derived from 4G8 (Fab, V domains shown)
VH: QVQLQQPGAELVKPGASLKLSCKSSGYTFTSYWMHWVRQRPGHGLEWIGEIDPSDSYKDYNQKFKDKATLTVDRSSNTAYMHLSSLTSDDSAVYYCARAITTTPFDFWGQGTTLTVSS
VL: DIVLTQSPATLSVTPGDSVSLSCRASQSISNNLHWYQQKSHESPRLLIKYASQSISGIPSRFSGSGSGTDFTLSINSVETEDFGVYFCQQSNTWPYTFGGGTKLEIKR
notes: Fab with E200 at the N-terminus of the light chain, 6xHis on both chains; also called B041; CD135, clone 4G8, B041-1_LC / B041-2_HC
As to B7, in the assay with CD135, the binding result is on record as “binds”.

B8: EGFR bridging molecule derived from matuzumab (Fab, V domains shown)
VH: QVQLVQSGAEVKKPGASVKVSCKASGYTFTSHWMHWVRQAPGQGLEWIGEFNPSNGRTNYNEKFKSKATMTVDTSTNTAYMELSSLRSEDTAVYYCASRDYDYDGRYFDYWGQGTLVTVSS
VL: DIQMTQSPSSLSASVGDRVTITCSASSSVTYMYWYQQKPGKAPKLLIYDTSNLASGVPSRFSGSGSGTDYTFTISSLQPEDIATYYCQQWSSHIFTFGQGTKVEIKR
notes: also called B035; EGFR, Matuzumab, B035-1_LC / B035-2_HC
For B8, the binding result in the assay with EGFR is recorded as “binds”.

B9: CD22 bridging molecule derived from m971-L7 (Fab, V domains shown)
VH: QVQLQQSGPGMVKPSQTLSLTCAISGDSVSSNSVAWNWIRQSPSRGLEWLGRTYYRSTWYNDYAVSMKSRITINPDTNKNQFSLQLNSVTPEDTAVYYCAREVTGDLEDAFDIWGQGTMVTVSS
VL: DIQMIQSPSSLSASVGDRVTITCRASQTIWSYLNWYRQRPGEAPNLLIYAASSLQSGVPSRFSGRGSGTDFTLTISSLQAEDFATYYCQQSYSIPQTFGQGTKLEIKR
notes: Fab with E200 at the N-terminus of the light chain, 6xHis on both chains; also called B023; CD22, m971-L7, B023-1 LC / B023-2_Heavy Chain
B9: in the assay with CD22 [2], the binding result was “binds”.

B10: BCMA bridging molecule derived from clone CA8 J9M0 (Fab, V domains shown)
VH: QVQLVQSGAEVKKPGSSVKVSCKGSGYTFTNYWMHWVRQAPGQGLEWIGATYRGHSDTYYNQKFKGRATLTADTSTSTAYMELSSLRSEDTAVYYCTRGAIYDGYDVLDNWGQGTLVTVSS
VL: DIQMTQSPSSLSASVGDRVTITCSASQDISNYLNWYQQKPGKAPKLLIYYTSNLHSGVPSRFSGSGSGTDFTLTISSLQPEDFATYYCQQYRKLPWTFGQGTKLEIKR
notes: Fab with E200 at the N-terminus of the light chain, 6xHis on both chains; also called B039; BCMA, clone CA8 J9M0, B039-1_LC / B039-2_HC
As for B10, the binding result in the assay with BCMA is “binds”.

B11: ROR1 bridging molecule derived from ROR1 APC (WO2016016344A1_D10v3) (Fab, V domains shown)
VH: QVQLKESGPGLVAPSQTLSITCTVSGFSLTSYGVHWVRQPPGKGLEWLGVIWAGGFTNYNSALKSRLSISKDNSKSQVLLKMTSLQTDDTAMYYCARRGSSYSMDYWGQGTSVTVSS
VL: EIVLSQSPAITAASLGQKVTITCSASSNVSYIHWYQQRSGTSPRPWIYEISKLASGVPVRFSGSGSGTSYSLTISSMEAEDAAIYYCQQWNYPLITFGSGTKLEIQR
notes: Fab with E200 at the N-terminus of the light chain, 6xHis on both chains; also called B044; ROR-1, clone D10v3, B044-1 LC / B044-2_HC
B11: in the assay with ROR1, the binding result is listed as “binds”.

B12: CD70 bridging molecule derived from cusatuzumab (Fab, V domains shown)
VH: EVQLVESGGGLVQPGGSLRLSCAASGFTFSVYYMNWVRQAPGKGLEWVSDINNEGGTTYYADSVKGRFTISRDNSKNSLYLQMNSLRAEDTAVYYCARDAGYSNHVPIFDSWGQGTLVTVSS
VL: SQAVVTQEPSLTVSPGGTVTLTCGLKSGSVTSDNFPTWYQQTPGQAPRLLIYNTNTRHSGVPDRFSGSILGNKAALTITGAQADDEAEYFCALFISNPSVEFGGGTQLTVLK
notes: Fab with E200 at the N-terminus of the light chain, 6xHis on both chains; also called B028; CD70, Cusatuzumab, B028-1_LC / B028-2_HC
For B12, the binding result with CD70 is “binds”.

B13: CD79B bridging molecule derived from polatuzumab (Fab, V domains shown)
VH: EVQLVESGGGLVQPGGSLRLSCAASGYTFSSYWIEWVRQAPGKGLEWIGEILPGGGDTNYNEIFKGRATFSADTSKNTAYLQMNSLRAEDTAVYYCTRRVPIRLDYWGQGTLVTVSS
VL: DIQLTQSPSSLSASVGDRVTITCKASQSVDYEGDSFLNWYQQKPGKAPKLLIYAASNLESGVPSRFSGSGSGTDFTLTISSLQPEDFATYYCQQSNEDPLTFGQGTKVEIKR
notes: Fab with E200 at the N-terminus of the light chain, 6xHis on both chains; also called B025; CD79B, Polatuzumab, B025-1 LC / B025-2_HC
With B13, the binding result in the assay with CD79B is recorded as “binds”.
